± gives the standard deviation of the averaged measurements.

Data set [1] is described as follows: melting temperature (DSF); higher = more thermostable. As for the experimental part: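 Candidate PET hydrolases were expressed in E. coli C41(DE3) in 2 mL autoinduction cultures in 24-deep-well plates, Ni-bead purified and released by SUMO protease cleavage on an OT-2 robot. Yield per well was measured by BCA; values below 25 ug (0.1 mg/mL) are below the detection threshold. Melting temperature was measured by differential scanning fluorimetry with Sypro Orange, ramping from 25 C at 0.3 C/step.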

A short description of data set [2]: purified protein yield per well (BCA); higher = higher soluble expression. An outline of the steps:
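On an OT-2 robot, lysed cells were processed by binding protein to Ni-charged magnetic beads and releasing it with SUMO protease. Expression took place in E. coli C41(DE3), in 2 mL autoinduction cultures with 100 µg/mL kanamycin, for 2 h at 37 °C followed by 40 h at 18 °C. The Pierce Rapid Gold BCA kit was used to quantify purified protein yield in each well, with values under 25 ug (0.1 mg/mL) below the detection threshold.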

Data set [3] in a line: PET hydrolysis, aromatic products released after 48 h (umol product/mg enzyme); higher = more PET depolymerization activity. Here is the method:
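HTP-purified, SUMO-cleaved, tagless PET hydrolase candidates (5 ug, 1.43 mg/g PET) were incubated 48 h without shaking with 3.5 mg amorphous PET film (aFilm) or crystalline PET powder (cryPow) in 0.5 mL buffer: NaCitrate pH 4.5/5.5, NaPhosphate pH 6.5/7.5, glycine pH 8.5. Incubation was at 40 or 60 C. Aromatic products (TPA, MHET, BHET) in the supernatant were quantified by UV absorbance at 260/280 nm relative to buffer blanks and expressed per mg enzyme. LCC-ICCG was the positive control on every plate.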

[4] abbreviates: substrate: cryPow, 40 °C, pH 4.5.
[5] abbreviates: substrate: cryPow, 40 °C, pH 5.5.
The mark [6] stands for this setting: substrate: cryPow, 40 °C, pH 6.5.
[7] abbreviates: substrate: cryPow, 40 °C, pH 7.5.
The mark [8] stands for this setting: substrate: cryPow, 60 °C, pH 4.5.
The mark [9] stands for this setting: substrate: cryPow, 60 °C, pH 5.5.
Where [10] appears, read: substrate: cryPow, 60 °C, pH 6.5.
[11] abbreviates: substrate: cryPow, 60 °C, pH 7.5.
[12] abbreviates: substrate: cryPow, 40 °C, pH 8.5.

The sequence “AANPYERGPAPTDAVLEASRGPFATTSYSVSGLSVTGFGGGVVYYPTSTSEGTFGAIAISPGYTATWSSLSWLGPRIASHGFVVIGIETNTLLDQPDSRGRQLLAALDYLVQRSSVRGRIDAGRLAVAGHSMGGGGTLEAAAARPSLQAAVPLAPWNLDKTWSGVTVPTLIVGGESDSVAPVASHSVPFYNSIPASSEKAYLELNGASHFFPQSVNTPTAKQMVAWLKRFVDNDTRYEQFLCPGPSGLAIEEYRNTCPSS [TEP018]” showed a melting temperature in data set [1] of 40.6 C. Besides, the “purified protein yield per well” value in data set [2] stood at 65.6 µg. The PET hydrolysis in data set [3] (setting [4]), in data set [3] (setting [5]), in data set [3] (setting [6]), in data set [3] (setting [7]), in data set [3] (setting [8]) and in data set [3] (setting [9]) was under 3 throughout. For the same sequence, the PET hydrolysis in data set [3] (setting [10]) and in data set [3] (setting [11]) was under 3 throughout.

In data set [1], “AANPYQRGPAPTAASVAAVTGPFATASVSVPRGNGFGGGVIYYPTDTSQGTFGGLAISPGLNGTWPGIAWLGSRLASQGFIVFGIETNNLNDSPTSRGTQLLAALDYLAQRSSVRSRLDPGRLAVAGHSMGGGGALDAALRRPSLKAAIGNAPYLPSNTLAGNRVPTLIYAMQNDTLVPPSRLTSLYNTIPATTERAYLEITGAGHNYIGQPSTTLARTMIPWLKIFIDNDTRFSQFLCPLADQSGIRQYRSSCPLVPATTRALTAAAG [DP043]” registered a melting temperature of 67.3 C. Also, in data set [2], the “purified protein yield per well” value was 92 µg. The PET hydrolysis in data set [3] (setting [5]) stood at 12; in data set [3] (setting [6]), 39; in data set [3] (setting [7]), 96; in data set [3] (setting [12]), 115; in data set [3] (setting [9]), 7; in data set [3] (setting [10]) it was 62. For the same sequence, the PET hydrolysis in data set [3] (setting [11]) was determined as 98; in data set [3] (substrate: cryPow, 60 °C, pH 8.5) it was 107.

For “ADSPYQRGPDPTPASVAATRGPFATTQATVPAGNGFNGGYVYYPTDTSQGTWGAVAIVPGYSALFANEEAWMGPWLASFGFVVIGIETNSRTDGADARATQLLAALDYLTRTSPIRDRVDANRLGVMGHSAGGAGTLLAALRRPTLKTAVGLAPGTPGNNLNMSTTQVPTMLLSGQNDGTVTPTYVQGIYNTLPAGVEHAWAELAGNDHLSFTRSNPTEMRLLIPWLKTFLDNDTRYTQFLCPLANSTGVSRYNATCPLVPPDGPTSPPTTTPPTSAPPTTSAPTTPPPSGATCTATYRTVNSWSGGFQGEVTVTAGAAALNGWTVRWESNNGQSISQVWNGTLSTSGSTATVRNVSYNGSLAAGATTTFGFLSSGTPAATSPTCASP [ESM051]”, the melting temperature in data set [1] is 54.4 C. Moreover, the “purified protein yield per well” value in data set [2] worked out at 27.3 µg.

In turn, “MSNPYQRGPNPTRSALTADGPFSVATYTVSRLSVSGFGGGVIYYPTGTSLTFGGIAMSPGYTADASSLAWLGRRLASHGFVVLVINTNSRFDGPDSRASQLSAALNYLRTSSPSAVRARLDANRLAVAGHSMGGGGTLRIAEQNPSLKAAVPLTPWHTDKTFNTSVPVLIVGAEADTVAPVSQHAIPFYQNLPSTTPKVYVELCNASHIAPNSNNAAISVYTISWMKLWVDNDTRYRQFLCNVNDPALCDFRTNNRHCQLEHHHHHH [LCC-ICCG]” came in with a melting temperature in data set [1] of 93.6 C. The PET hydrolysis in data set [3] (substrate: aFilm, 40 °C, pH 4.5) is 8.5 ± 1.9; in data set [3] (substrate: aFilm, 40 °C, pH 5.5) it was 17.4 ± 9.2; in data set [3] (substrate: aFilm, 40 °C, pH 6.5) it was 38.1 ± 12; in data set [3] (substrate: aFilm, 40 °C, pH 7.5), 58.9 ± 20; in data set [3] (substrate: aFilm, 40 °C, pH 8.5) it was 73 ± 30; in data set [3] (substrate: aFilm, 60 °C, pH 4.5) it was 60.8 ± 8. For the same sequence, the PET hydrolysis is 448 in data set [3] (substrate: aFilm, 60 °C, pH 5.5); 820 ± 23 in data set [3] (substrate: aFilm, 60 °C, pH 6.5); 965 ± 100 in data set [3] (substrate: aFilm, 60 °C, pH 7.5); 584 in data set [3] (substrate: aFilm, 60 °C, pH 8.5); 20.1 ± 5.3 in data set [3] (setting [4]); 51.5 ± 15 in data set [3] (setting [5]). Also, the PET hydrolysis in data set [3] (setting [6]) came out at 94.5 ± 18; in data set [3] (setting [7]) it was 130 ± 20; in data set [3] (setting [12]), 113 ± 14; in data set [3] (setting [8]), 56.2 ± 7.2; in data set [3] (setting [9]) it was 121 ± 18; in data set [3] (setting [10]), 208 ± 33. Also, in data set [3] (setting [11]), the PET hydrolysis came to 236 ± 3.

Sequence “ADNPYERGPAPTTASIEAVRGPYAVSEYRVSSLAATGFGGGTIHYPTTTADGTFGAIAVSPGYTGTESTIAWLGPRLASQGFVVFTIETLTLFDQPDSRGRQLLAALDHLTRVSPLRGRVDSSRLGVMGHSMGGGGSLEAAKSRPSLQAAVPLTPWNLDKTWPELRTPTLVVGADGDSIAPVRSHAEPFYESLPSSLDRAYLELNGASHFAPNSPDTTIAKYSIAWLKRFIDNDTRYEQFLCPLPRPSLTIEEYRGNCPHTS [TEP138]” displayed a melting temperature in data set [1] of 36.1 C. Besides, the “purified protein yield per well” value in data set [2] was 28 µg.

For the sequence “TNPAPPSTPNPPAEESPYVRGPNPTVSFLEARSGPLSVRTSRVSSLVSGFGGGTIHYPTGTTGTMGAVVVIPGFVSAESSIDWWGPKLASHGFVVLTIDTNTGFDQPPSRARQINNALDYLVSQNSSRTSPVRGMIDTNRLGVIGWSMGGGGTLRVASEGRIKAAIPLAPWDTVSSYAANAQAPTLIFACQADIVAPVAAHASPFYNRLPNSIDKAYVEISGGSHYCANGGGLNNNVLSRFGVSWMKRFLDEDTRYSQFLCGPNHRSDRDIADYRGNCP [ESM172]”, the melting temperature in data set [1] stood at 49 C. Moreover, in data set [2], the “purified protein yield per well” value is 26 µg.

On to “FSATGPSAPCSNCTRGPAPTVTALKASTGPFTTAKFSVSGFLKGYGDSTVYYPTNTTGKMGAIAVIPGYLSYESSIDWWGPRLASHGFVVMTMNTKTIYDQPDSRASQLSEALDYLIAQSKSSSSPLYNKIDSTRLGAIGWSMGGGGSLKLATQRSINAIIPQAPWYLGSSAFSGIKTPTLILACSADTVAPVAQHASPFYNQIPNSTPKAFLEIYGGSHFCANSGYPNQDMLGMYGIAWMKRFIDFDSRYSQFLCGPNHESDYAISDYRENCPY [ESM055]”, for which the melting temperature in data set [1] was 55.3 C. For the same sequence, the “purified protein yield per well” value in data set [2] stood at 28.9 µg.

“TADSSYQRGPAPTEASVRADRGPFQVARVNVPGAGFGSGTIYYPTDTSQGTFGGVAVSPGFLSPEILIAWLGPRLASHGFVVITFTTNTPTDQPDSRGSQLLAALDYLTTQSPTAVRQRLDNTRLSVIGHSMGGGGALRAANDRPDLQAAVPLGPYHTTKDWSGVRVPTMIIGGQYDSIAPNDQHSERFYNSLDSAPEKAYLRVTGTTHITVGTGTPGVGKYVLSWLKRFVDDDTRYDQFLCPTPSGPDVVEYHSTCPHA [TEP009]”: in data set [1], the melting temperature was 49.3 C. The “purified protein yield per well” value in data set [2] amounted to 28.4 µg.

The record behind these values is the supplement of paper PMC12455559.
